Results: US20060286032A1, “A radiosotope-chitosan complex for treatment of prostate cancer” (priority 2003, published 2006)
“Also recorded” adds a separate entry of the source. Marks after values point to notes of the source that are not given here.

What was measured:
[1] = system: AIT prostate carcinoma cells; assay: Antitumor effect in orthotopic tumor model, AIT transplanted into the prostate gland; type: in vivo, noble rats
Method: In addition to the subcutaneous tumor model tested in Experimental Example 6, the antitumor effect and side effects of the complex solution was examined in an orthotopic tumor model where AIT prostate carcinoma cells had been directly transplanted into the prostate gland. AIT cells were cultured in 10% FBS-containing DMEM at 37° under 5% CO2. The cultured carcinoma cells were suspended in sterile physiological saline at a density of 2×10^6 cells/0.05 ml. After noble rats were anesthetized with fentanyl and the abdomen was opened, 2×10^6 cells per rat were transplanted into the prostate gland of the rats. Seven days after carcinoma transplantation, the rats were randomly allocated. The kit prepared in Example 2 was used as a test drug, and 0.05 ml of the kit was administered. The rats were divided into four groups: a control group (no treatment); two administration groups administered with 0.5 mCi and 1.0 mCi of the complex solution; and another administration group administered with a non-radioactive complex solution (Holmium-165 (^165Ho)-chitosan complex solution). Two and four weeks after administration of the complex solution, the rats were sacrificed, and tumors were excised from the rats and weighed.

[2] = Whole-body autoradiography after injection of 25 μl or 50 μl complex solution into the prostate gland; type: in vivo, male SD rats
Method: After one week acclimation, male SD rats were anesthetized with diethylether, and an about 2-cm midline incision was made in the lower abdomen of the pubis. After the prostate gland was exposed along with the bladder, 25 μl and 50 μl (each about 100 μCi) of the complex solution prepared in Example 2 were individually administered to the prostate gland using a syringe. After the rats were sacrificed 0.5 hr and 6 hrs after administration, cryosections were prepared, and whole-body autoradiography was carried out to measure radioactive concentrations in the liver, spleen, kidney, the end region of the femur, spine and administration sites. The measured radioactive concentrations (% ID/g) in various organs after injection of the complex solution are given in Table 1, below.
Numerals of Table 1 indicate mean+standard deviation (n=3).

[3] = Autoradiography, complex solution versus ^166Ho(NO3)3.5H2O solution not containing chitosan, injected into the prostate gland; type: in vivo, rats; conditions: for Radioactive concentration, Administration site / Radioactive concentration, End region of femur / Radioactive concentration, Liver / Radioactive concentration, Spine / Radioactive concentration, Kidney / Radioactive concentration, Spleen: 25 μl (about 100 μCi)
Method: To investigate advantages of the ^166Ho-chitosan complex, autoradiography was carried out for a group administered with the complex solution and a control group administered with a ^166Ho(NO3)3.5H2O solution not containing chitosan. In the complex solution administration group, 25 μl of the complex solution was administered, which was equal to about 100 μCi. The control group was administered with a ^166Ho(NO3)3.5H2O solution not containing chitosan with the same dosage and radioactive concentration as in the complex solution administration group. This test was carried out according to the same method as in Experimental Example 1, and each test drug was administered to the prostate gland. After 0.5, 2, 6 and 24 hrs, rats were sacrificed and evaluated by autoradiography. The measured radioactive concentrations (% ID/g) in various organs after injection of the complex solution and the ^166Ho(NO3)3.5H2O solution are given in Table 2, below.

## Holmium-166 (^166Ho)-Chitosan Complex [complex solution]
[1]; 0.5 mCi, 2 wks after administration
  Tumor weight: 0.45 ± 0.07 g
[1]; 0.5 mCi, 4 wks after administration
  Tumor weight: 1.58 ± 0.97 g
[1]; 1.0 mCi, 2 wks after administration
  Tumor weight: 0.49 ± 0.08 g
[1]; 1.0 mCi, 4 wks after administration
  Tumor weight: 1.09 ± 0.32 g
[1]; two weeks after administration, listed as present complex
  Effect on tumor growth: showed an inhibitory effect against the tumor growth; also recorded: the tumor growth was suppressed
[2]; 25 μl administration, 30 min
  Radioactive concentration, Administration site: 4258 ± 732.9 % ID/g
  Radioactive concentration, End region of femur: 0.05 ± 0.030 % ID/g
  Radioactive concentration, Spine: 0.02 ± 0.009 % ID/g
[2]; 25 μl administration, 6 hrs
  Radioactive concentration, Administration site: 4478 ± 1212.4 % ID/g
  Radioactive concentration, End region of femur: 0.16 ± 0.047 % ID/g
  Radioactive concentration, Kidney: 0.01 ± 0.002 % ID/g
  Radioactive concentration, Liver: 0.04 ± 0.015 % ID/g
  Radioactive concentration, Spine: 0.04 ± 0.011 % ID/g
  Radioactive concentration, Spleen: 0.03 ± 0.007 % ID/g
[2]; 50 μl administration, 30 min
  Radioactive concentration, Administration site: 3196 ± 212.5 % ID/g
  Radioactive concentration, End region of femur: 0.05 ± 0.030 % ID/g
  Radioactive concentration, Kidney: 0.02 ± 0.011 % ID/g
  Radioactive concentration, Liver: 0.01 ± 0.007 % ID/g
  Radioactive concentration, Spine: 0.02 ± 0.007 % ID/g
[2]; 50 μl administration, 6 hrs
  Radioactive concentration, Administration site: 3054 ± 1873.0 % ID/g
  Radioactive concentration, End region of femur: 0.10 ± 0.065 % ID/g
  Radioactive concentration, Kidney: 0.01 ± 0.001 % ID/g
  Radioactive concentration, Liver: 0.03 ± 0.008 % ID/g
  Radioactive concentration, Spine: 0.04 ± 0.018 % ID/g
  Radioactive concentration, Spleen: 0.02 ± 0.014 % ID/g
[2]; 6 hrs after administration
  Radioactivity detected in the administration site: over 90%
  Radioactivity in major organs including the liver, spleen and kidney: no radioactivity was detected
[2]; 6 hrs after administration, listed as radioisotope-chitosan complex
  Radioactivity in major organs including the liver, spleen and kidney: rarely detected
[3]; 30 min
  Radioactive concentration, Administration site: 4149 ± 1563.2 % ID/g
  Radioactive concentration, End region of femur: 0.04 ± 0.015 % ID/g
  Radioactive concentration, Liver: 0.01 ± 0.004 % ID/g
  Radioactive concentration, Spine: 0.01 ± 0.002 % ID/g
[3]; 2 hrs
  Radioactive concentration, Administration site: 3246 ± 764.0 % ID/g
  Radioactive concentration, End region of femur: 0.07 ± 0.013 % ID/g
  Radioactive concentration, Liver: 0.016 % ID/g
  Radioactive concentration, Spine: 0.02 ± 0.004 % ID/g
[3]; 6 hrs
  Radioactive concentration, Administration site: 4815 ± 1177.4 % ID/g
  Radioactive concentration, End region of femur: 0.21 ± 0.101 % ID/g
  Radioactive concentration, Kidney: 0.02^b % ID/g
  Radioactive concentration, Liver: 0.04 ± 0.024 % ID/g
  Radioactive concentration, Spine: 0.05 ± 0.024 % ID/g
  Radioactive concentration, Spleen: 0.03 ± 0.027 % ID/g
[3]; 24 hrs
  Radioactive concentration, Administration site: 3998 ± 705.1 % ID/g
  Radioactive concentration, End region of femur: 0.55 ± 0.324 % ID/g
  Radioactive concentration, Kidney: 0.03 ± 0.016 % ID/g
  Radioactive concentration, Liver: 0.04 ± 0.004 % ID/g
  Radioactive concentration, Spine: 0.14 ± 0.070 % ID/g
  Radioactive concentration, Spleen: 0.04 ± 0.010 % ID/g
[3]; 24 hrs after being administered
  Radioactivity retained in the administration site, the prostate gland: ~90%
